From US20250241939A1, “NUCLEIC ACID-BASED DELIVERY SYSTEMS AND USES THEREOF” (Kodikaz Therapeutic Solutions, Inc., priority 2022, published 2025) come the findings set out here.

In data set [1] the test system is MM1s (multiple myeloma) cell genome. The experiment in a line: ctDNA coculture with MM1s cells, whole genome sequencing: genomic insertion sites, transposons at insertion points and SNVs (multiple myeloma). It counts as cell-based, human. The protocol:
(§1) The integration of ctDNAs into the host cell genome was evaluated. ctDNA was extracted from patient plasma, cultured for 24 hours with cells of a matching cancer cell type or non-matching cancer cell type, and whole genome sequencing was performed. The cell lines used were MM1s (multiple myeloma, MM) and MIA (pancreatic cancer, PC).
Single nucleotide variants (SNVs) unique to the ctDNA that were found in the host cell genome under matching coculture conditions were identified.
The sequence data was used to reconstruct genomic contigs for each experimental condition by de novo assembly. […] Coculture contigs carrying a ctDNA insertion were identified using NucDiff analysis. BLAST alignment analysis further validated the gain of ctDNA fragments in coculture conditions and identified the transition points of ctDNA insertion (FIGS. 3A-3C). […] The remaining 20% inserted into a chromosomal location distinct from their site of origin.
(§2) Experiments were designed to identify the presence of transposons in ctDNA fragments. To map ctDNA genomic junctions more precisely, a PACBIO probe was ligated to multiple myeloma and pancreatic cancer ctDNA samples to label their 5′ and 3′ ends. Whole-genome sequencing of DNA from cells with ctDNA genomic integration was done using the Illumina platform. De novo assembly was performed on the sequencing output. ctDNA contigs containing PACBIO adaptor were then matched to those contigs containing inserted ctDNA sequences identified in the coculture experiments. Transposable element on ctDNA sequences at the insertion points (<100 nucleotides from transition point between cell and ctDNA) were detected and classified using RepeatMaster.
(§3) A search was conducted for transposons that preferentially target cells of matching tumor types. The lists of transposons identified at the ctDNA insertion point in matching and mismatched coculture conditions were compared (e.g., MM ctDNA with MM cells or PC cells). Transposons were selected that were uniquely or preferentially inserted in the matching conditions.
In multiple myeloma, AluSp, MER11, MER11C, AluJb, and L2a, among other subfamilies of retrotransposons were identified at the MM ctDNA insertion sites (FIG. 5B and TABLE 7).
(§4) Whole-genome sequencing and Whole exon sequencing: ctDNA was extracted from 10 MM and 10 PC patients. DNA from CD138 (+) cells and from cell lines used in in vitro experiments (MM1s and MIA) was extracted using Blood & Cell Culture DNA Mini Kit (Quiagen, MD). DNA from […] paraffin embedded pancreatic tumors was obtained using QIAamp DNA FFPE Tissue Kit Print (Qiagen, MD).
After extraction, ctDNA was ligated to the PACBIO adaptor ([…]) using the ABM DNA Library Prep Kit for Illumina Sequencing (Applied Biological Materials Inc. Canada). PACBio-labeled ctDNA and regular ctDNA were subjected to standard methods for library preparation and sequencing using Illumina and Agilent protocols, respectively. Applied Biological Materials Inc. prepared the libraries and performed whole-exon and -genome sequencing. The average target coverage was 50×.
(§5) Identification of transposable elements and its nucleotide variants: To determine the locations of transposable-like regions in contigs, sequences were analyzed and transposable elements (TEs) were identified and classified using RepeatMasker version 4.1.0 and the Dfam database (release 3.1) of repetitive DNA families was used as a reference for identifying repeats in ctDNA contig sequences that were part of qualifying structural events. For each repeat sequence identified by RepeatMasker, the overall frequency of the specific repeat (e.g., for AluSp or L1) and their parent class (e.g., SINE) was computed.
Once the TE elements were identified, hit repeats/TE sequences, unique contigs for all samples, and insertion sequence were aligned with MAFFT software version. […]

The test system of data set [2] is MIA (pancreatic cancer) cell genome. The experiment in a line: ctDNA coculture with MIA cells, whole genome sequencing: genomic insertion sites, transposons at insertion points and SNVs (pancreatic cancer). The note with it: TABLE 8, pancreatic cancer co-culture; for blast orientation: BLAST alignment orientation; for blast chr: chromosome with the longest result for BLAST analysis of the full contig; for Transposon orientation: compared with the human reference genome; for Location relative to insertion: location of the transposon relative to the insertion on the contig. It counts as cell-based, human. The procedure:
as §1
The sequence data was used to reconstruct genomic contigs for each experimental condition by de novo assembly. […] Coculture contigs carrying a ctDNA insertion were identified using NucDiff analysis.
as §2, §3, §4
After extraction, ctDNA was ligated to the PACBIO adaptor ([…]) using the ABM DNA Library Prep Kit for Illumina Sequencing (Applied Biological Materials Inc. Canada). PACBio-labeled ctDNA and regular ctDNA were subjected to standard methods for library preparation and sequencing using Illumina and Agilent protocols, respectively. Applied Biological Materials Inc. prepared the libraries and performed whole-exon and -genome sequencing.
as §5
Once the TE elements were identified, hit repeats/TE sequences, unique contigs for all samples, and insertion sequence were aligned with MAFFT software version. Mutations in TE sequences were identified by comparison of nucleotides at each position in the multiple sequence alignment with the “Biostrings” R package (version 4.1). A position was considered to contain mutation if the substitution was present in contigs of all samples.

Regarding L1MB3, in data set [1] (TABLE 7, multiple myeloma co-culture, BLAST alignment orientation), the blast orientation entry was “Plus/Plus”. Further, the blast chr entry in data set [1] (TABLE 7, multiple myeloma co-culture, chromosome with the longest result for BLAST analysis of the full contig) is “chr2”. Further, the Distance from insertion in data set [1] (TABLE 7, multiple myeloma co-culture, distance between insertion and the transposon (0 if they overlap)) is on record as −68. Also, the “Location relative to insertion” value in data set [1] (TABLE 7, multiple myeloma co-culture, location of the transposon relative to the insertion on the contig) is recorded as “right”.

B1: 4 (nucleic acid, listed as Homo sapiens)
chain: TGATATGGTTTGGCTGTGTCCCCACCTAAATCTCATCTTGAATTGTAGTTCCCATAATCCCCATGTGTCATGGGAGGGACCCAGTGGGAGGTAATTTAATCCTGGGGGCAGTTACCCTCCTGCTATGTGTGTGTGTGTGTGTGTGTTCTCACGAGATCTGATGGTTTTATAAGGGGCTTTTCCCCCTTCGCTCGGCACTTCTCCTTCCTGCCGCCATGTGAAGAAGGACGTGTTTGCTTCCCCTTCCGCCATGATTGTAAGTTTCCTGAGGCCTCCCCAGCCATGCNGAACTGTGAGTCAATTAAACCTCTTTCCTTTATAAATTACCCAGTCTCGGGTGTGTCTTTATTAGCAGCGTGAGAACGGACTAATACA
modifications: misc_difference 287 a, c, t, g, unknown or other
B1: in data set [1] (gene at identified genomic insertion site, multiple myeloma), the Gene result is “PI4K2B”. Moreover, in data set [1] (identified genomic insertion site, chromosome, multiple myeloma), the Location entry is “Chr4”. For the same molecule, in data set [1] (number of single nucleotide variants (SNVs or SNPs) identified, multiple myeloma), the “No. SNP” value amounted to 2.

B2: MIRc (nucleic acid, listed as Homo sapiens)
DNA: AATTACAACAACCCTTAATATTTGTAAAGCGCTTGATAATTCAGGGAGGGCTTTTAAAAACTTCTATCCATCTCTTCCCCCCAGCAATCCTATGAGGTAGGCAGGGCTGGAATCATTTGCTGCATTTTATCGAATAGGAAGCCATGACTCGTAGAGGTCTGGTGACTTAACTGAGGTCACCCACTGAGGACGTGGCAGAGCTGGGTCCTGAATCTGTGGCCCTCAGGCTCTTTGCCTGGCCCTGCCTCACATAGACTACGCTGCCTCT
B2: in data set [2], the blast orientation result is “Plus/Plus”; the blast chr entry is “chr16 and chr8”; the Transposon orientation entry was “direct”; the “Location relative to insertion” value is on record as “left”.

B3: MLT1J2 (nucleic acid, listed as Homo sapiens)
DNA: TGTGTTAGTCAGGATAGGCTAACCTCTGTAACACACAACCCCAATTTTTCAGTGGCTCAGAACAATAGGAGTTTCTTTCTTACTCATGTAAAGTCCAGGTGTGGCAGAAACTTGCGGGGGAGAAAGTCTACTCCACAGCATCACTCAGGGACCCAGGCTCCTGCCTTACGGTGGTTCCGCCATTTTCCAGGGCCTCGGAGTCCTCCATCCCATCTCCTCCATTCAGCTGGTGGATGTGGGAGGAGAGCGTGTATGAAAGACCACACAGAAGCTTTTTTTGGGCCAGGCTTTGAGACGGCGCACATCAGTTTCGCTCTTGTTGCCCAGGCTGGAGTGCAATGGCGCAATCTCGGCTCACCGCAAAAGACACTGGGAAATTTGGTCTGGCCATGTGTCTAGGAAGCAGAGGAGATGGGGTTTCATAAACTCCTGAACTCTCTCTACCACG
For B3, in data set [2], the blast orientation entry is “Plus/Plus”, the blast chr result is listed as “chr21”, the Transposon orientation entry is listed as “direct” and the “Location relative to insertion” value is reported as “intersect”. The Distance from insertion in data set [2] (distance between insertion and the transposon (0 if they overlap)) is given as 0.
